T1: His-tagged human CD73 ECD (human) (UniProt P21589)
T1 sequence: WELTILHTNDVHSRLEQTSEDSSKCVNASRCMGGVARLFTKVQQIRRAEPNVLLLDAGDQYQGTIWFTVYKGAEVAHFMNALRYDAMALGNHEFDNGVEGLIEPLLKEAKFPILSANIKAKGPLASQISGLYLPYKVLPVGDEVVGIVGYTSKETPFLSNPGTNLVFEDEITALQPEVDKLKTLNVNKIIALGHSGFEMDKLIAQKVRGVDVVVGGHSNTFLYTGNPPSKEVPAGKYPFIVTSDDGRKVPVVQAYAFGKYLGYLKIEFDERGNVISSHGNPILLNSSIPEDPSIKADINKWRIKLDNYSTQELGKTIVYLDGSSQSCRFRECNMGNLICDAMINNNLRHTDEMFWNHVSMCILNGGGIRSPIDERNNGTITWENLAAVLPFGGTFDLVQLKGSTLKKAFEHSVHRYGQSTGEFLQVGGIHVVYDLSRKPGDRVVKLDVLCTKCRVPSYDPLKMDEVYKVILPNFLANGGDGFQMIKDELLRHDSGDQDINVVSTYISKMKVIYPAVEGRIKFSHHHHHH

T2: human CD73 ECD fused C-terminally to human IgG1 Fc (human) (UniProt P21589)
T2 sequence: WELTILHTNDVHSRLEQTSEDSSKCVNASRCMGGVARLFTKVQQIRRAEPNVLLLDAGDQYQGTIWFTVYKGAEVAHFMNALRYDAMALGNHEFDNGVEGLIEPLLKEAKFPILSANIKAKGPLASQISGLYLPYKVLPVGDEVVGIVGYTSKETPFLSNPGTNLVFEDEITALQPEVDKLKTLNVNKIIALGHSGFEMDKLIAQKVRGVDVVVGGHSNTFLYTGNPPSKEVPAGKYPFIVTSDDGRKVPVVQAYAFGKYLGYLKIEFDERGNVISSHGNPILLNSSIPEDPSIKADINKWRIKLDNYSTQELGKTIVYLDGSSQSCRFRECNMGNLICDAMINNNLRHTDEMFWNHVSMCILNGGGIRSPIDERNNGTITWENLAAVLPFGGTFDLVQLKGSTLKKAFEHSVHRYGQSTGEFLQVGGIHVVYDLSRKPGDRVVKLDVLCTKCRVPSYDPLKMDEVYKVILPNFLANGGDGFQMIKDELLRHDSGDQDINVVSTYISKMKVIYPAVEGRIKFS

B1: oleclumab analogue (MEDI9447, Medimmune) (antibody, INN chains, looked up, V domains shown)
VH: EVQLLESGGGLVQPGGSLRLSCAASGFTFSSYAYSWVRQAPGKGLEWVSAISGSGGRTYYADSVKGRFTISRDNSKNTLYLQMNSLRAEDTAVYYCARLGYGRVDEWGRGTLVTVSS
VL: QSVLTQPPSASGTPGQRVTISCSGSLSNIGRNPVNWYQQLPGTAPKLLIYLDNLRLSGVPDRFSGSKSGTSASLAISGLQSEDEADYYCATWDDSHPGWTFGGGTKLTVL
modifications: IgG1-TM
B2: 11E1 analogue (Innate Pharma) (antibody, from another filing, IgG1, V domains shown)
VH: EIQLQQSGPELVKPGASVKVSCKASGYAFTSYNMYWVKQSHGKSLEWIGYIDPYNGGTSYNQKFKGKATLTVDKSSSTAYMHLNSLTSEDSAVYYCARGYGNYKAWFAYWGQGTLVTVSA
VL: DAVMTQTPKFLLVSAGDRVTITCKASQSVTNDVAWYQQKPGQSPKLLIYYASNRYTGVPDRFTGSGYGTDFTFTISTVQAEDLAVYFCQQDYSSLTFGAGTKLELK
B3: CPX006 analogue (Corvus) (antibody, from another filing, IgG1, V domains shown)
VH: QVQLVQSGAEVEKPGASVKVSCKASGYTFTSYWITWVRQAPGQGLEWMGDIYPGSGNTNYNEKFKTRVTITADKSTSTAYMELSSLRSEDTAVYYCAKEGGLTTEDYALDYWGQGTLVTVSS
VL: EIVLTQSPATLSLSPGERATLSCRASKNVSTSGYSYMHWYQQKPGQAPRLLIYLASNLESGIPPRFSGSGYGTDFTLTINNIESEDAAYYFCQHSRELPFTFGQGTKVEIKR
B4: 11E1 analogue Fab fragment (Fab, from another filing, V domains shown)
VH: B2 VH
VL: B2 VL
B5: oleclumab analogue Fab fragment (Fab, INN chains, looked up, V domains shown)
VH: B1 VH
VL: B1 VL
modifications: Fab
B6: CPX006 analogue Fab fragment (Fab, from another filing, V domains shown)
VH: B3 VH
VL: B3 VL

How the values were obtained:
[1] = target: human CD73 expressed on cells (human) (UniProt P21589); assay: cell-based or functional assay; conditions: scale: % viable cells compared to untreated cells
[2] = target: T1, His-tagged human CD73 ECD (human); assay: SEC-MALS, mAb:CD73 0.1:1
[3] = target: T1, His-tagged human CD73 ECD (human); assay: SEC-MALS, mAb:CD73 0.5:1
[4] = target: T1, His-tagged human CD73 ECD (human); assay: SPR, mAb captured, His-tagged CD73 ECD injected
[5] = target: His-tagged cynomolgus CD73 ECD (cynomolgus monkey (Macaca fascicularis)); assay: SPR, mAb captured, His-tagged CD73 ECD injected
[6] = target: T1, His-tagged human CD73 ECD (human); assay: SEC-MALS, mAb:CD73 1:1
[7] = target: cynomolgus CD73 ECD fused C-terminally to human IgG1 Fc (cynomolgus monkey (Macaca fascicularis); human); assay: SPR, Fc-tagged CD73 ECD captured, Fab injected
[8] = target: T2, human CD73 ECD fused C-terminally to human IgG1 Fc (human); assay: SPR, Fc-tagged CD73 ECD captured, Fab injected

| Binder | molecular mass of complex, Peak 2 (MW, kDa) [2] [kDa] | molecular mass of complex, Peak 3 (MW, kDa) [2] [kDa] | molecular mass of complex, Peak 4 (MW, kDa) [2] [kDa] | molecular mass of complex, Peak 2 (MW, kDa) [3] [kDa] | molecular mass of complex, Peak 3 (MW, kDa) [3] [kDa] | molecular mass of complex, Peak 4 (MW, kDa) [3] [kDa] | Kd [4] [nM] | koff [4] [s⁻¹] | kon [4] [M⁻¹ s⁻¹] | Kd [5] [nM] | koff [5] [s⁻¹] | kon [5] [M⁻¹ s⁻¹] | molecular mass of complex, Peak 2 (MW, kDa) [6] [kDa] | molecular mass of complex, Peak 3 (MW, kDa) [6] [kDa] | molecular mass of complex, Peak 4 (MW, kDa) [6] [kDa] | Kd [7] [nM] | koff [7] [s⁻¹] | kon [7] [M⁻¹ s⁻¹] | Kd [8] [nM] | koff [8] [s⁻¹] | other results |
| --- | --- | --- | --- | --- | --- | --- | --- | --- | --- | --- | --- | --- | --- | --- | --- | --- | --- | --- | --- | --- | --- |
| B1 | 194 | 432 | 821 | 870 | 559 | 1010 | 0.02 | 2.5e-06 | 110000 | 0.06 | 6.6e-06 | 140000 | 389 | 682 | 1040 |  |  |  |  |  | viable MDA-MB-468 cells in the presence of 300 µM AMP (WST-1) [1]: 70 to 80 |
| B2 | 265 | 704 | 11800 | 277 | 566 | 3370 | 0.1 | 5.6e-06 | 57000 | 0.14 | 1.3e-05 | 84000 | 270 | 511 | 802 |  |  |  |  |  |  |
| B3 | 121 | 236 | 339 | 143 | 245 | 349 | 0.02 | 2.4e-06 | 170000 | 0.33 | 1.4e-05 | 28000 | 148 | 246 | 363 |  |  |  |  |  |  |
| B4 |  |  |  |  |  |  |  |  |  |  |  |  |  |  |  | 8.7 | 0.0028 | 320000 | 9.8 | 0.0028 | kon [8]: 290000 M⁻¹ s⁻¹ |
| B5 |  |  |  |  |  |  |  |  |  |  |  |  |  |  |  | 0.07 | 4.3e-05 | 580000 | 0.06 | 3.4e-05 | kon [8]: 560000 M⁻¹ s⁻¹ |
| B6 |  |  |  |  |  |  |  |  |  |  |  |  |  |  |  | 71.6 | 0.00048 | 6700 | 80.3 | 0.00053 | kon [8]: 6600 M⁻¹ s⁻¹ |

From patent US20210070876A1
